Source: patent US20210095036A1 (University of Pennsylvania, published 2021)

B1: CD19-Fc (Fc fusion, UniProt P15391 20-291, looked up)
chain: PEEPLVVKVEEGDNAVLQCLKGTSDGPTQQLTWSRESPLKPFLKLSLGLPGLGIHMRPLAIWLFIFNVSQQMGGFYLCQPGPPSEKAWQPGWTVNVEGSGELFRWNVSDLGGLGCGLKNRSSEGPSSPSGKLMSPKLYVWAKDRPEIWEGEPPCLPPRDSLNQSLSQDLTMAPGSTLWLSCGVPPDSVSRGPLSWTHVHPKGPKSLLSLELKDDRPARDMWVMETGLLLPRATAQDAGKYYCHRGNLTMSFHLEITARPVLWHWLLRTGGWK
notes: The words recombinant human Fc-fusions leave open whether human means the Fc or the antigen; also called recombinant human Fc-fusion of CD19 antigen; Fc-conjugated soluble CD19; not shown: human Fc

What was measured:
CAR-14 = target: T1, CAR-14 (human, UniProt P01732 183-206; Q07011 214-255; P20963 52-163); assay: flow cytometry of CAR T cells stained with Fc-fusion antigen and anti-human Fc-specific antibodies
T1 construct: domain: transmembrane domain;domain: 4-1BB domain;domain: CD3zeta domain; Chimeric antigen receptor on transduced human T cells; also called pTRPE-C14-gs-BBz
T1 sequence (P01732 other isoform, or with tags, fused parts or gaps limits assumed): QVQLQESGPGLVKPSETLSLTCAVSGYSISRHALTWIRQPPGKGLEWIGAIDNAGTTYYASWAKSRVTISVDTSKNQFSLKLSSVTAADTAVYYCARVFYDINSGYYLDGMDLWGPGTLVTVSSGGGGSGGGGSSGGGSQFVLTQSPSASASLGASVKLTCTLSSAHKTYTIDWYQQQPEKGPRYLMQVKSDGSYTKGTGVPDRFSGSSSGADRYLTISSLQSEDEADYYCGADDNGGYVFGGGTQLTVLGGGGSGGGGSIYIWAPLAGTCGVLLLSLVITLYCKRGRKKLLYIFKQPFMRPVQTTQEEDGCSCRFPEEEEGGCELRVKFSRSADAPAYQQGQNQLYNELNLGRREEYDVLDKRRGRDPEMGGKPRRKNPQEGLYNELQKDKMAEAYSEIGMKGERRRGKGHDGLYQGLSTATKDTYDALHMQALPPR
Protocol: (§1) To create CAR-T expressing cells, human T cells from healthy donors were activated with anti-CD3 and anti-CD28 coated paramagnetic beads (DYNABEADS® Human T-Activator CD3/CD28, Life Technologies). One day following activation, cells were transduced with lentiviral vectors encoding GFRα4-directed CARs (original rabbit P4-10 and humanized versions), a CD19-directed control CAR (FMC63(cd8)bbz), or were left non-transduced (NTD). Cells were expanded and on day 7, cells were evaluated for cell-surface expression of the CARs by flow cytometry (FACSCalibur, BD Biosciences, Franklin Lakes, N.J.). Fluorescently-labeled goat anti-rabbit antibodies detected CAR P4-10, the original rabbit GFRα4-directed CAR, and fluorescently-labeled Protein L detected the murine CD19-directed CAR (FIG. 19A, “P410” and “19bbz”, respectively). Fluorescently-labeled rabbit anti-human antibodies (“RaH”) detected CARs 10, 14, 25, and 29 (FIG. 19B). Expression of cell-surface CARs were also detected by staining with antigen using recombinant human Fc-fusions of GFRα4 or CD19 antigen followed by detection of bound antigen with fluorescently-labeled anti-human Fc-specific antibodies (FIG. 19C). Appropriately, CD19-Fc only bound to CD19-directed CARs while GFRα4-Fc bound to both rabbit P4-10 and humanized P4-10 CARs but not the CD19-directed CAR.

CAR-10 = target: T2, CAR-10 (human, UniProt P01732 183-206; Q07011 214-255; P20963 52-163); assay: as above
T2 construct: domain: transmembrane domain;domain: 4-1BB domain;domain: CD3zeta domain; Chimeric antigen receptor on transduced human T cells; also called CAR10bbz; pTRPE-C10-gs-BBz
T2 sequence (P01732 other isoform, or with tags, fused parts or gaps limits assumed): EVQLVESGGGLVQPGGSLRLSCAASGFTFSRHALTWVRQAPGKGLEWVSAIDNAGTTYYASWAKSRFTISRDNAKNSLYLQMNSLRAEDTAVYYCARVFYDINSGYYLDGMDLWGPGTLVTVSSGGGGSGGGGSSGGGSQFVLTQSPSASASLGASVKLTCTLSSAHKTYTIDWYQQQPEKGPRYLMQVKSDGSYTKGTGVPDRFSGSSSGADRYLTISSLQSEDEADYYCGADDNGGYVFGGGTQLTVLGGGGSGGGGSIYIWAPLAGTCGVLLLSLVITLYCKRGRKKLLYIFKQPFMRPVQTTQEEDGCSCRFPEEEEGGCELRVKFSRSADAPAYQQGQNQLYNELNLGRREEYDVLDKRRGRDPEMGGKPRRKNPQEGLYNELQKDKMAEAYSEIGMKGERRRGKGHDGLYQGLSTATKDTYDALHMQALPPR
Protocol: as §1

CAR-25 = target: T3, CAR-25 (human, UniProt P01732 183-206; Q07011 214-255; P20963 52-163); assay: as above
T3 construct: domain: transmembrane domain;domain: 4-1BB domain;domain: CD3zeta domain; Chimeric antigen receptor on transduced human T cells; also called pTRPE-C25-gs-BBz
T3 sequence (P01732 other isoform, or with tags, fused parts or gaps limits assumed): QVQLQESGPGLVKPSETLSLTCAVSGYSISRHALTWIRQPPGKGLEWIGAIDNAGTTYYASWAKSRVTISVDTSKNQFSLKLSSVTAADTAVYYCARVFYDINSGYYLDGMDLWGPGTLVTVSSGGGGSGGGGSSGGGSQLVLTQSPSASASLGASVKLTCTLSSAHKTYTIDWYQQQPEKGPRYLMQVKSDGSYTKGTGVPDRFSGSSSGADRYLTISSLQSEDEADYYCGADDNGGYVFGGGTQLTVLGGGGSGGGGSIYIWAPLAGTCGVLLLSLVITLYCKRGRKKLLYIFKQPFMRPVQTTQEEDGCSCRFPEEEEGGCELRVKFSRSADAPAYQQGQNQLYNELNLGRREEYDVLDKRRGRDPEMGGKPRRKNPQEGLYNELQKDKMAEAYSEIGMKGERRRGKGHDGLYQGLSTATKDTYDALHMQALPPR
Protocol: as §1

CAR-29 = target: T4, CAR-29 (human, UniProt P01732 183-206; Q07011 214-255; P20963 52-163); assay: as above
T4 construct: domain: transmembrane domain;domain: 4-1BB domain;domain: CD3zeta domain; Chimeric antigen receptor on transduced human T cells; also called pTRPE-C29-gs-BBz
T4 sequence (P01732 other isoform, or with tags, fused parts or gaps limits assumed): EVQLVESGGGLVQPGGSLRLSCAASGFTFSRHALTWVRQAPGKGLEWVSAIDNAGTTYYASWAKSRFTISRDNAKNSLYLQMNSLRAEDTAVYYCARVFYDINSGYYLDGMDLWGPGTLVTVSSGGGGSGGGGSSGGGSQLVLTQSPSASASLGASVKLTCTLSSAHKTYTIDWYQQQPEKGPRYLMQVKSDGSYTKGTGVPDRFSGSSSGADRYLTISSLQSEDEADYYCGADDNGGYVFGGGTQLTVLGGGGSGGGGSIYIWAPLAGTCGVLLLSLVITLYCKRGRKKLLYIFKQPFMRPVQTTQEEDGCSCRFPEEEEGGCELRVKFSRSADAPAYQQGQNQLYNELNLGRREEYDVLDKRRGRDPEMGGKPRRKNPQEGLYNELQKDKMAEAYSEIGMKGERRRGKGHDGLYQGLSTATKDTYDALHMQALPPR
Protocol: as §1

[1] = target: T5, GFRα4 isoform b (GFRα4b), Fc fusion (human); assay: flow cytometry of CAR T cells stained with Fc-fusion antigen and anti-human Fc-specific antibodies (FIG. 19C)
T5 construct: the entry holds the whole fusion; also called GFR4α4b; GFRα4-Fc
Protocol: as §1

CD19-Fc = target: B1; assay: flow cytometry of CAR T cells stained with Fc-fusion antigen and anti-human Fc-specific antibodies
Protocol: as §1

B1
binding result (CAR-14): no binding | binding result (CAR-10): no binding | binding result (CAR-25): no binding | binding result (CAR-29): no binding

B2: CAR P4-10, the original rabbit GFRα4-directed CAR (other)
VH: QSVKESEGGLFKPTDTLTLTCTVSGFSLSRHALTWVRQAPGNGLEWIGAIDNAGTTYYASWAKSRSTITRNTDLHTVTLKMTSLTASDTATYFCARVFYDINSGYYLDGMDLWGPGTLVTVSS
VL: QFVLTQSPSVSAALGASAKLTCTLSSAHKTYTIDWYQQQQGEAPRYLMQVKSDGSYTKGTGVPDRFSGSSSGADRYLIIPSVQADDEAGYVCGADDNGGYVFGGGTQLTVT
notes: Chimeric antigen receptor on transduced human T cells, one chain in fact; also called P410bbz; P4-10 CAR
binding result [1]: binds | binding result (CD19-Fc): no binding
